Experimental data from US20070099268A1, “Chimeric HCN channels” (priority 2005, published 2007).
Entries after “also recorded” stand apart in the source; their conditions may differ.

What was measured:
AdHCN2 infected culture = experiment: Modulation of spontaneous rate by drugs in an AdHCN2 infected culture; type: cell-based, rat; conditions: superfusion with drug; control record of same culture 48, 54 and 96 beats/min respectively
[1] = tested on: neonatal rat ventricular myocytes; experiment: Voltage clamp of HCN2 or HCN4 plasmid (lipofectin) expressed in neonatal rat ventricular myocytes; type: cell-based
Excerpt: cDNAs encoding mouse HCN2 (mHCN2, GenBank AJ225122) or HCN4 (mHCN4, GenBank deposit in progress) were subcloned into the pCI mammalian expression vector (Promega, Madison, Wis.). The resulting plasmids (pCI-mHCN2 or pCI-mHCN4) were used for neonatal rat ventricular myocyte transfection, as indicated. A separate plasmid (pEGFP-CI; Clontech, Palo Alto, Calif.) expressing the gene of enhanced green fluorescent protein (EGFP) as a visual marker for successful DNA transfer was included in all transfection experiments. For transfection, 2 μg of pCI-mHCN and […] of pEGFP-CI were first incubated in 200 μl of SFM containing 10 μl of lipofectin (Gibco Life Technologies, Rockville, Md.) at room temperature for 45 min. The mixture was then added to a 35-mm petri dish containing […] suspended in 0.8 ml of SFM. After overnight incubation at 37° C. in a CO2 incubator, the medium containing the plasmids and lipofectin was discarded and the dish was refilled with 2 ml of fresh SFM.
The whole-cell voltage clamp technique was employed to record native If or expressed IHCN2 or IHCN4. Action potentials were recorded in current clamp mode, again using a whole cell patch electrode. Experiments were carried out on cells superfused at 35° C. Extracellular solution contained (mM): NaCl, 140; NaOH, 2.3; MgCl2, 1; KCl, 5.4; CaCl2, 1.0; HEPES, 5; glucose, 10; pH 7.4. To record from myocytes expressing native currents (If), myocytes expressing HCN2 (IHCN2) or HCN4 (IHCN4), [K^+]0 was increased to 10 mM, and MnCl2 (2 mM) and BaCl2 (4 mM) added to the superfusate to eliminate calcium and inward rectifier (IK1) currents. In some experiments CsCl (4 mM) was used extracellularly to identify the pacemaker current as the Cs-sensitive current. The patch pipette solution included (mM): aspartic acid, 130; KOH, 146; NaCl, 10; CaCl2, 2; EGTA-KOH, 5; Mg-ATP, 2; HEPES-KOH, 10, pH 7.2. Where indicated, 10 μM cAMP was included in the pipette solution. A fast solution changing apparatus expedited the experimental protocols. The pipette resistance was typically 1-3 M. An Axopatch-200B amplifier and pClampS software (Axon Instruments) were used for acquisition and data analysis. […]
The activation relation of the native or expressed current can be determined from the steady-state I-V relation. In this case, the reversal potential (Vf) was separately determined from the fully activated I-V relation (Accili et al., 1991) and used to generate the activation relation (y=I/(gmax*(V−Vf)), where gmax is the maximal conductance). […] Tail currents were measured at a negative voltage (−125 mV) to avoid contamination by transient outward and other currents at less negative voltages. […]

[2] = tested on: mammalian expression systems; conditions: cited from earlier work
Xenopus oocytes = experiment: Two-microelectrode voltage clamp of mHCN2 and mE324A expressed in Xenopus oocytes; type: cell-based, Xenopus laevis
Protocol: Oocytes were prepared from mature female Xenopus laevis in accordance with an approved protocol as previously described (Yu et al., 2004).
For expression of HCN in Xenopus oocytes, oocytes were injected with 5 ng of cRNA made from mouse wild-type mHCN2 and mutant mHCN2 (E324A) plasmids. Injected oocytes were incubated at 18° C. for 24-48 h prior to electrophysiological analysis.
For measurements in Xenopus oocytes, oocytes were voltage-clamped using a two-microelectrode voltage clamp technique. The extracellular recording solution (OR2) contained (in mM): NaCl, 80; KCl, 2; MgCl2, 1; and Na-HEPES, 5 (pH 7.6). For the recording of steady state activation of expressed Wt mHCN2, currents were elicited by 2-s long hyperpolarizing pulses between −30 mV and −160 mV with 10 mV increments, followed by a 1-s depolarizing pulse to +15 mV. The holding potential was −30 mV. As to the mHCN2 (E324A), currents were elicited by 3-s-long hyperpolarizing pulses between +20 mV and −130 mV with 10 mV increments, followed by a 1 second depolarizing pulse to +50 mV. The holding potential was +20 mV. To construct the current/voltage relationship for wildtype (Wt) mHCN2, the cell was held at […], the current was elicited by a 2-s hyperpolarizing voltage step to −140 mV to saturate activation, and followed by 2-s depolarizing voltage steps between […] and +50 mV in 10 mV increments. For mHCN2 (E324A), the cell was held at +20 mV, current was elicited by a 1.5-s hyperpolarizing voltage step to −110 mV to saturate activation, and then followed by 1.5-s depolarizing voltage steps between −80 mV and +50 mV in 10 mV increments for the recording of tail currents. To record the current amplitudes for Wt mHCN2, the current was evoked by applying a 3-s hyperpolarizing voltage pulse to −120 mV from a holding potential of −30 mV. For mHCN2 (E324A), the current was evoked by applying a 3-s hyperpolarizing voltage pulse to −120 mV from a holding potential of +20 mV.

[3] = tested on: cell-free patches from Xenopus oocytes; conditions: binding of cAMP to the CNBD; cited from earlier work

C[N+](C)(C)CCOC(N)=O [carbachol]
spontaneous rate during drug exposure (AdHCN2 infected culture): 45 beats/min

CCN(c1ccccc1)c1cc(=NC)n(C)c(C)n1.Cl [ZD-7288]
spontaneous rate during drug exposure (AdHCN2 infected culture): 78 beats/min

B1: HCN4: mouse HCN4 channel isoform (protein, UniProt O70507 1-1201, looked up)
Potassium/sodium …: MDKLPPSMRKRLYSLPQQVGAKAWIMDEEEDGEEEGAGGRQDPSRRSIRLRPLPSPSPSVAAGCSESRGAALGATESEGPGRSAGKSSTNGDCRRFRGSLASLGSRGGGSGGAGGGSSLGHLHDSAEERRLIAAEGDASPGEDRTPPGLATEPERPATAAQPAASPPPQQPPQPASASCEQPSADTAIKVEGGAAASDQILPEAEVRLGQSGFMQRQFGAMLQPGVNKFSLRMFGSQKAVEREQERVKSAGFWIIHPYSDFRFYWDLTMLLLMVGNLIIIPVGITFFKDENTTPWIVFNVVSDTFFLIDLVLNFRTGIVVEDNTEIILDPQRIKMKYLKSWFVVDFISSIPVDYIFLIVETRIDSEVYKTARALRIVRFTKILSLLRLLRLSRLIRYIHQWEEIFHMTYDLASAVVRIVNLIGMMLLLCHWDGCLQFLVPMLQDFPHDCWVSINGMVNNSWGKQYSYALFKAMSHMLCIGYGRQAPVGMSDVWLTMLSMIVGATCYAMFIGHATALIQSLDSSRRQYQEKYKQVEQYMSFHKLPPDTRQRIHDYYEHRYQGKMFDEESILGELSEPLREEIINFNCRKLVASMPLFANADPNFVTSMLTKLRFEVFQPGDYIIREGTIGKKMYFIQHGVVSVLTKGNKETKLADGSYFGEICLLTRGRRTASVRADTYCRLYSLSVDNFNEVLEEYPMMRRAFETVALDRLDRIGKKNSILLHKVQHDLNSGVFNYQENEIIQQIVRHDREMAHCAHRVQAAASATPTPTPVIWTPLIQAPLQAAAATTSVAIALTHHPRLPAAIFRPPPGPGLGNLGAGQTPRHPRRLQSLIPSALGSASPASSPSQVDTPSSSSFHIQQLAGFSAPPGLSPLLPSSSSSPPPGACGSPPAPTPSTSTAAAASTTGFGHFHKALGGSLSSSDSPLLTPLQPGARSPQAAQPPPPLPGARGGLGLLEHFLPPPPSSRSPSSSPGQLGQPPGELSLGLAAGPSSTPETPPRPERPSFMAGASGGASPVAFTPRGGLSPPGHSPGPPRTFPSAPPRASGSHGSLLLPPASSPPPPQVPQRRGTPPLTPGRLTQDLKLISASQPALPQDGAQTLRRASPHSSGESVAAFSLYPRAGGGSGSSGGLGPPGRPYGAIPGQHVTLPRKTSSGSLPPPLSLFGARAASSGGPPLTTAAPQREPGARSEPVRSKLPSNL
activation kinetics compared to HCN2 ([1]; for most voltages): markedly slower | slope factor (K) ([1]; lipofectin transfection): 6.7±0.7 mV | midpoint of activation reported in other mammalian expression studies [2]: −80 to −109 mV

B2: mE324A: mHCN2 with glutamate at position 324 mutated to alanine (protein, UniProt O88703 1-863, looked up, variant E324A)
Potassium/sodium …: MDARGGGGRPGDSPGTTPAPGPPPPPPPPAPPQPQPPPAPPPNPTTPSHPESADEPGPRARLCSRDSACTPGAAKGGANGECGRGEPQCSPEGPARGPKVSFSCRGAASGPSAAEEAGSEEAGPAGEPRGSQASFLQRQFGALLQPGVNKFSLRMFGSQKAVEREQERVKSAGAWIIHPYSDFRFYWDFTMLLFMVGNLIIIPVGITFFKDETTAPWIVFNVVSDTFFLMDLVLNFRTGIVIEDNTEIILDPEKIKKKYLRTWFVVDFVSSIPVDYIFLIVEKGIDSEVYKTARALRIVRFTKILSLLRLLRLSRLIRYIHQWAEIFHMTYDLASAVMRICNLISMMLLLCHWDGCLQFLVPMLQDFPSDCWVSINNMVNHSWSELYSFALFKAMSHMLCIGYGRQAPESMTDIWLTMLSMIVGATCYAMFIGHATALIQSLDSSRRQYQEKYKQVEQYMSFHKLPADFRQKIHDYYEHRYQGKMFDEDSILGELNGPLREEIVNFNCRKLVASMPLFANADPNFVTAMLTKLKFEVFQPGDYIIREGTIGKKMYFIQHGVVSVLTKGNKEMKLSDGSYFGEICLLTRGRRTASVRADTYCRLYSLSVDNFNEVLEEYPMMRRAFETVAIDRLDRIGKKNSILLHKVQHDLSSGVFNNQENAIIQEIVKYDREMVQQAELGQRVGLFPPPPPPQVTSAIATLQQAVAMSFCPQVARPLVGPLALGSPRLVRRAPPGPLPPAASPGPPAASPPAAPSSPRAPRTSPYGVPGSPATRVGPALPARRLSRASRPLSASQPSLPHGVPAPSPAASARPASSSTPRLGPAPTARTAAPSPDRRDSASPGAASGLDPLDSARSRLSSNL
activation threshold (Xenopus oocytes): around −30 mV | slope (s) with cAMP (Xenopus oocytes; 8-Br-cAMP 1 mM): 19.7 mV | Vh with cAMP (Xenopus oocytes; 8-Br-cAMP 1 mM extracellular): −48.9 mV | effect of Cs+ on inward current (Xenopus oocytes; Cs+ 5 mM): blocked; also recorded: large inhibition | slope (s), control (Xenopus oocytes; control): 15.2 mV | reversal potential of IHCN2 (Xenopus oocytes; fully activated current/voltage relation): ~−40 mV | half maximal activation (Vh), control (Xenopus oocytes; oocytes, control): −57.3 mV | induced current (Xenopus oocytes; single voltage pulse to −120 mV): 579.8±18.2 nA

B3: HCN1: mouse HCN1 channel isoform (protein)
chain: MEGGGKPNSASNSRDDGNSVFPSKAPATGPVAADKRLGTPPGGGAAGKEHGNSVCFKVDGGGGEEPAGSFEDAEGPRRQYGFMQRQFTSMLQPGVNKFSLRMFGSQKAVEKEQERVKTAGFWIIHPYSDFRFYWDLIMLIMMVGNLVIIPVGITFFTEQTTTPWIIFNVASDTVFLLDLIMNFRTGTVNEDSSEIILDPKVIKMNYLKSWFVVDFISSIPVDYIFLIVEKGMDSEVYKTARALRIVRFTKILSLLRLLRLSRLIRYIHQWEEIFHMTYDLASAVVRIFNLIGMMLLLCHWDGCLQFLVPLLQDFPPDCWVSLNEMVNDSWGKQYSYALFKAMSHMLCIGYGAQAPVSMSDLWITMLSMIVGATCYAMFVGHATALIQSLDSSRRQYQEKYKQVEQYMSFHKLPADMRQKIHDYYEHRYQGKIFDEENILSELNDPLREEIVNFNCRKLVATMPLFANADPNFVTAMLSKLRFEVFQPGDYIIREGAVGKKMYFIQHGVAGVITKSSKEMKLTDGSYFGEICLLTKGRRTASVRADTYCRLYSLSVDNFNEVLEEYPMMRRAFETVAIDRLDRIGKKNSILLQKFQKDLNTGVFNNQENEILKQIVKHDREMVQAIPPINYPQMTALNCTSSTTTPTSRMRTQSPPVYTATSLSHSNLHSPSPSTQTPQPSAILSPCSYTTAVCSPPIQSPLATRTFHYASPTASQLSLMQQPQQQLPQSQVQQTQTQTQQQQQQQQQQQQQQQQQQQQQQQQQQQQQQQQQQQQQPQTPGSSTPKNEVHKSTQALHNTNLTKEVRPLSASQPSLPHEVSTLISRPHPTVGESLASIPQPVAAVHSTGLQAGSRSTVPQRVTLFRQMSSGAIPPNRGVPPAPPPPAAVQRESPSVLNTDPDAEKPRFASNL
shift of activation curve to more positive potentials by cAMP [3]: 4 mV
